Test results published in patent US20240124586A1 (WUXI BIOLOGICS IRELAND, published 2024).
Read-outs that look alike come from different tables or passages of the source.

T1: human CD19 on CD19+ B cell lines (Ramos, Raji) (human, UniProt P15391 20-556)
T1 sequence (looked up): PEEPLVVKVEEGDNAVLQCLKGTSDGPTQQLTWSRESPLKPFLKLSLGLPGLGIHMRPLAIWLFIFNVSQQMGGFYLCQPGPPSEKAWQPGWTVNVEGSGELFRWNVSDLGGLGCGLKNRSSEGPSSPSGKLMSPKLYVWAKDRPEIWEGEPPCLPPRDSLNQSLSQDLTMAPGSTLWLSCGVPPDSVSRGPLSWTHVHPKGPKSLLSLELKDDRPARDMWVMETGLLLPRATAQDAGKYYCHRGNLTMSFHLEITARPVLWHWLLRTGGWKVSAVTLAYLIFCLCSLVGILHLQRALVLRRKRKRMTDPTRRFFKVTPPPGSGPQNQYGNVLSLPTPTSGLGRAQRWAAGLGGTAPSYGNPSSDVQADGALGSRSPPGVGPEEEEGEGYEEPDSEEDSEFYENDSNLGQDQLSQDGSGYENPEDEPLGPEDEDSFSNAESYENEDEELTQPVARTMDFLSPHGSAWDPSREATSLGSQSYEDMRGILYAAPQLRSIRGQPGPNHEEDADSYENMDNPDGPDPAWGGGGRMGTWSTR

B1: W3438-T3U4.F16-1.uIgG4.SP, bispecific trivalent anti-CD3 x CD19 (bispecific antibody)
heavy 1: QVQLVQSGAEVKKPGSSVKVSCKASGFAFTDYYIHWVRQAPGQGLEWMGWISPGNVNTKYNENFKGRVTITADKSTSTAYMELSSLRSEDTAVYYCARDGYSLYYFDYWGQGTLVTVLEDLKNVFPPEVAVFEPSEAEISHTQKATLVCLATGFYPDHVELSWWVNGKEVHSGVCTDPQPLKEQPALQDSRYALSSRLRVSATFWQNPRNHFRCQVQFYGLSENDEWTQDRAKPVTQIVSAEAWGRYGPPCPPCPAPEFLGGPSVFLFPPKPKDTLMISRTPEVTCVVVDVSQEDPEVQFNWYVDGVEVHNAKTKPREEQFNSTYRVVSVLTVLHQDWLNGKEYKCKVSNKGLPSSIEKTISKAKGQPREPQVYTLPPCQEEMTKNQVSLWCLVKGFYPSDIAVEWESNGQPENNYKTTPPVLDSDGSFFLYSRLTVDKSRWQEGNVFSCSVMHEALHNHYTQKSLSLSLGK
light 1: DIVMTQSPDSLAVSLGERATINCKSSQSLLNSRTRKNYLAWYQQKPGQPPKLLIYWASTRQSGVPDRFSGSGSGTDFTLTISSLQAEDVAVYYCTQSHTLRTFGGGTKVEIKPDIQNPDPAVYQLRDSKSSDKSVCLFTDFDSQTQVSQSKDSDVYITDKCVLDMRSMDFKSNSAVAWSQKSDFACANAFQNSIIPEDTFFPSPESS
heavy 2: QMQLVQSGPEVKKPGTSVKVSCKASGYAFTSYNMYWVRQARGQRLEWIGYIDPYNGDTTYNQKFKGRVTITRDMSTSTAYMELSSLRSEDTAVYYCLTTAYAMDYWGQGTLVTVSSASTKGPSVFPLAPCSRSTSESTAALGCLVKDYFPEPVTVSWNSGALTSGVHTFPAVLQSSGLYSLSSVVTVPSSSLGTKTYTCNVDHKPSNTKVDKRVGGGGSGGGGSQMQLVQSGPEVKKPGTSVKVSCKASGYAFTSYNMYWVRQARGQRLEWIGYIDPYNGDTTYNQKFKGRVTITRDMSTSTAYMELSSLRSEDTAVYYCLTTAYAMDYWGQGTLVTVSSASTKGPSVFPLAPCSRSTSESTAALGCLVKDYFPEPVTVSWNSGALTSGVHTFPAVLQSSGLYSLSSVVTVPSSSLGTKTYTCNVDHKPSNTKVDKRVESKYGPPCPPCPAPEFLGGPSVFLFPPKPKDTLMISRTPEVTCVVVDVSQEDPEVQFNWYVDGVEVHNAKTKPREEQFNSTYRVVSVLTVLHQDWLNGKEYKCKVSNKGLPSSIEKTISKAKGQPREPQVCTLPPSQEEMTKNQVSLSCAVKGFYPSDIAVEWESNGQPENNYKTTPPVLDSDGSFFLVSRLTVDKSRWQEGNVFSCSVMHEALHNHYTQKSLSLSLGK
light 2: DIQLTQSPSFLSASVGDRVTITCSASSTVNYMHWYQQKPGKAPKLLIYSTSNLASGVPSRFSGSGSGTEFTLTISSLQPEDFATYYCHQWSSYPYTFGQGTKLEIKRTVAAPSVFIFPPSDEQLKSGTASVVCLLNNFYPREAKVQWKVDNALQSGNSQESVTEQDSKDSTYSLSSTLTLSKADYEKHKVYACEVTHQGLSSPVTKSFNRGEC
notes: also called F16-Design_2-QQQQ (IgG4)
B2: U6T1.G25R.IgG4, bispecific anti-PD-1 x CTLA-4 (as listed in Example 15) (bispecific antibody)
heavy: EVQLLESGGGLVQPGGSLRLSCAASGFTFSSHAMSWVRQAPGKGLEWVSTITGGGGSIYYADSVKGRFTISRDNSKNTLYLQMNSLRAEDTAVYYCAKNRAGEGYFDYWGQGTLVTVSSASTKGPSVFPLAPCSRSTSESTAALGCLVKDYFPEPVTVSWNSGALTSGVHTFPAVLQSSGLYSLSSVVTVPSSSLGTKTYTCNVDHKPSNTKVDKRVGGGGSGGGGSQVQLVESGGGVVQPGRSLRLSCAASGFTFSSYTMHWVRQAPGKGLEWVTFISYDGNNKYYADSVKGRFTISRDNSKNTLYLQMNSLRAEDTAIYYCARTGWLGPFDYWGQGTLVTVLEDLKNVFPPEVAVFEPSEAEISHTQKATLVCLATGFYPDHVELSWWVNGKEVHSGVCTDPQPLKEQPALQDSRYALSSRLRVSATFWQNPRNHFRCQVQFYGLSENDEWTQDRAKPVTQIVSAEAWGRYGPPCPPCPAPEFLGGPSVFLFPPKPKDTLMISRTPEVTCVVVDVSQEDPEVQFNWYVDGVEVHNAKTKPREEQFNSTYRVVSVLTVLHQDWLNGKEYKCKVSNKGLPSSIEKTISKAKGQPREPQVYTLPPSQEEMTKNQVSLTCLVKGFYPSDIAVEWESNGQPENNYKTTPPVLDSDGSFFLYSRLTVDKSRWQEGNVFSCSVMHEALHNHYTQKSLSLSLGK
light 1: SYELTQPLSVSVALGQTARITCGGDNIGNKDVHWYQQKPGQAPVLVIYRDSNRPSGIPEGFSGSNSGNTATLTISRAQAGDEADYYCQVWDSIWVFGGGTKLTVLGQPKAAPSVTLFPPSSEELQANKATLVCLISDFYPGAVTVAWKADSSPVKAGVETTTPSKQSNNKYAASSYLSLTPEQWKSHKSYSCQVTHEGSTVEKTVAPTECS
light 2: not shown
notes: kept apart; also called U6T1 in G25R format

Legend:
[1] = molecular target: T1, human CD19 on CD19+ B cell lines …; test: cell-based or functional assay
[2] = molecular target: T1, human CD19 on CD19+ B cell lines …; test: flow cytometry on Ramos cells
[3] = molecular target: T2, human CD3 on CD3+ Jurkat cells (human, UniProt P07766 23-207; P09693 23-182; P04234 22-171); test: flow cytometry on Jurkat cells
T2 construct: whole, on cells; also called CD3 positive Jurkat cells

[4] = molecular target: T1, human CD19 on CD19+ B cell lines …; test: FACS on CD19+ Ramos cells
[5] = molecular target: T3, human PD-1 on engineered CHO-S cells (W305-CHO-S.hPro1.C6) (human, UniProt Q15116 25-288); test: FACS on human PD-1 engineered cells
T3 construct: whole, on cells; also called human PD-1 engineered cells; PD-1+ cells
Experimental: (§1) Engineered human PD-1 expressing cells W305-CHO-S.hPro1.C6 were seeded at 1×10⁵ cells/well in U-bottom 96-well plates (COSTAR 3799). Antibodies with 3.16-fold titration in 1% BSA DPBS from 200 nM to 0.002 nM were added to the cells. The plates were incubated at 4° C. for 1 hour. After wash, […] 1:125 diluted PE-labeled goat anti-human antibody (Jackson 109-115-098) was added to each well and the plates were incubated at 4° C. for 1 hour. The binding of the antibodies onto the cells was tested by flow cytometry and the mean fluorescence intensity (MFI) was analyzed by FlowJo.

[6] = molecular target: T3, human PD-1 on engineered CHO-S cells …; test: FACS on human PD-1 engineered cells; remark: listed apart in the source
Experimental: as §1

[7] = molecular target: T3, human PD-1 on engineered CHO-S cells …; test: FACS competition: antibody titrated against human PD-L1 binding to PD-1; falling curve, half-maximal value labelled EC50 on the sheet
Experimental: (§2) In order to test whether the bispecific antibodies could block hPD-L1 binding to hPD-1 protein, a competitive FACS was conducted. […] Plates were incubated at 4° C. for 1 hour. After wash, the binding of W315-hPro1.ECD.mFc to cell expressive human PD-1 was detected by FITC-labeled goat anti-mouse antibody (abcam 98716 1:125). The competition binding of antibodies to the cells was tested by flow cytometry and the mean fluorescence intensity (MFI) was analyzed by FlowJo.

[8] = molecular target: T3, human PD-1 on engineered CHO-S cells …; test: as above; remark: listed apart in the source
Experimental: as §2

[9] = molecular target: T4, human PD-1 ECD mouse Fc fusion (W305-hPro1.ECD.mFc) (human, UniProt Q15116 25-170); test: dual-binding ELISA: human PD-1 ECD coated, antibody titrated, bound antibody detected with biotinylated human CTLA-4 ECD and streptavidin-HRP
T4 construct: extracellular domain; In-house protein; also called hPD-1-ECD; human PD-1 coated on the plate
Experimental: In order to test whether the bispecific antibodies could bind to both hPD-1 and hCTLA-4, an ELISA assay was developed as below. A 96-well ELISA plate (Nunc MaxiSorp, ThermoFisher) was coated overnight at 4° C. with 0.5 μg/ml antigen-1 (hPD-1-ECD, W305-hPro1.ECD.mFc) in carbonate-bicarbonate buffer. After a 1 hour blocking step with 2% (w/v) bovine serum albumin (Pierce) dissolved in PBS, serial dilutions of the different PD-1×CTLA-4 bispecific antibodies in PBS containing 2% BSA PBS were incubated on the plates for 1 hour at room temperature. Following the incubation, plates were washed three times with 300 μL per well of PBS containing 0.5% (v/v) Tween 20. […] After washing the plates three times, Streptavidin-HRP (Lifetechnologies, #SNN1004) (1:20000 diluted) was added and incubated on the plates for 1 hour at room temperature. After washing six times with […] per well of PBS containing 0.5% (v/v) Tween 20, 100 μL tetramethylbenzidine (TMB) substrate was added for the detection per well. The reaction was stopped after approximately 5 minutes through the addition of […] per well of 2 M HCl. The absorbance of the wells was measured at 450 nm with a multiwall plate reader (SpectraMax® M5e).

T3 sequence (Q15116 25-288, change not shown): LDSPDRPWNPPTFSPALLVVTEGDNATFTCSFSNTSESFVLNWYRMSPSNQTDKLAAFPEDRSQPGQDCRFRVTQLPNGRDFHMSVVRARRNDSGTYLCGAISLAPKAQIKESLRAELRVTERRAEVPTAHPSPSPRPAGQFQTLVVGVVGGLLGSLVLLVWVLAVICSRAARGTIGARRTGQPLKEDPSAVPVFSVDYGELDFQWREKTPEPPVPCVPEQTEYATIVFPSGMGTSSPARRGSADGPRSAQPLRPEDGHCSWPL
T4 sequence (Q15116 25-170): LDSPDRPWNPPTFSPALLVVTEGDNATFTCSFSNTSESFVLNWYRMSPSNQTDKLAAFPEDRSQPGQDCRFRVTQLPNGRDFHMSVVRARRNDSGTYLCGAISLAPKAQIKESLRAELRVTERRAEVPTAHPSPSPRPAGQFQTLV
T2 sequence (P07766 23-207, chain 1 of 3): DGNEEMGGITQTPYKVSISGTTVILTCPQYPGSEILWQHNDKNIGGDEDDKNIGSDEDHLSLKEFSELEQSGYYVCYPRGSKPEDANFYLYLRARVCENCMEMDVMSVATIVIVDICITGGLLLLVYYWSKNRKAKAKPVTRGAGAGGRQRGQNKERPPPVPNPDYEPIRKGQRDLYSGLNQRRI
T2 sequence (P09693 23-182, chain 2 of 3): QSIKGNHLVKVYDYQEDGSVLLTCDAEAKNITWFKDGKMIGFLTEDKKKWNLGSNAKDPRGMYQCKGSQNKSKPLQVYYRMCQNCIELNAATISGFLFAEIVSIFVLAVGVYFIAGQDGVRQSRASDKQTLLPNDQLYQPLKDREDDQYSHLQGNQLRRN
T2 sequence (P04234 22-171, chain 3 of 3): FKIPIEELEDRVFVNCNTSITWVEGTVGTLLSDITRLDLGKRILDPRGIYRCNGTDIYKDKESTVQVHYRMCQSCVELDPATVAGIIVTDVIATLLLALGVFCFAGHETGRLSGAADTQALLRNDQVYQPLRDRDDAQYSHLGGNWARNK

Binder | EC50 of T-cell engaged malignant B cell killing [1] [nM] | EC50 of cell lysis, CD8+ T cells and Raji cells, 4 hours [1] [nM] | EC50 [2] [nM] | EC50 [3] [nM] | EC50 (read off the curve) [4] [nM] | EC50 [5] [nM] | EC50 [6] [nM] | IC50 [7] [nM] | IC50 [8] [nM] | EC50 [9] [nM]
B1 | 0.0055 | 3.2 | 1.8 | 19.3 | 1 to 2 |  |  |  |  | 
B2 |  |  |  |  |  | 1.81 | 1.42 | 1.92 | 1.67 | 0.107
